Results as given in paper PMC9379584 (iScience, 2022).
Several values for one entry are separate records, joined by “and”; a condition that tells them apart may be missing. Equal entries are not always repeated. Where two headings read alike, the source gives them in different places.

Key:
[1] = molecular target: IL6-HiBiT-D2R-HaloTag (human dopamine D2 receptor) (human) (UniProt P14416); experiment: FRET or BRET
[2] = molecular target: IL6-HiBiT-α2A-AR-HaloTag (rat α2A-adrenergic receptor) (rat) (UniProt P22909); experiment: FRET or BRET
INS-1E cells [3] = experiment: HTRF cAMP assay in INS-1E cells; assay type: cell-based, rat; conditions: normalized to DA's efficacy in parental INS-1E
α2A-AR [4] = molecular target: T1, α2A-AR (Rattus norvegicus, UniProt P22909); experiment: cell-based; conditions: nanoBRET
T1 sequence (P22909 1-465): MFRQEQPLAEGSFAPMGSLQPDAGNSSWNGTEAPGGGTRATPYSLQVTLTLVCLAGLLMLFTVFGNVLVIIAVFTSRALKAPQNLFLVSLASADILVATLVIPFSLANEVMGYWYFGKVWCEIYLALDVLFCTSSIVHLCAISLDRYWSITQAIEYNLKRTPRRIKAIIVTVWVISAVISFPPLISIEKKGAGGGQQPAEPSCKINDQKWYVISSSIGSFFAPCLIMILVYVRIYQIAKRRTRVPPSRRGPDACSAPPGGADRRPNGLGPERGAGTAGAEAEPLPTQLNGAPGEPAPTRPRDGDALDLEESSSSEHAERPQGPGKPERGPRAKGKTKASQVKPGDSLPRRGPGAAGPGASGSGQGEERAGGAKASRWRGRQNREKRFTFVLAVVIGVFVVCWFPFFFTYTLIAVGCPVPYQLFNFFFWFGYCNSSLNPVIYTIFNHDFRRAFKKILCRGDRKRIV

α2A-AR [5] = molecular target: T1, α2A-AR; assay type: cell-based; conditions: nanoBRET
[6] = tested on: α2A-AR KO INS-1E-derived cell line; experiment: HTRF cAMP assay in α2A-AR KO INS-1E-derived cells; assay type: cell-based, rat
INS-1E cells [7] = conditions: cited from earlier work
mouse pancreatic islets [8] = conditions: cited from earlier work
mouse pancreatic islets [9] = experiment: Glucose-stimulated insulin secretion; assay type: cell-based; conditions: read-out: IC50, inhibition of GSIS; wildtype mouse islets, 20 mM glucose, 90 min
INS-1E cells [10] = experiment: Glucose-stimulated insulin secretion; assay type: cell-based, rat; conditions: read-out: IC50, inhibition of GSIS; INS-1E, 20 mM glucose, 90 min
[11] = molecular target: IL6-HiBiT-D2R-HaloTag (human dopamine D2 receptor) (human, UniProt P14416 1-443, HaloTag NanoBRET 618 ligand bound to the HaloTag); experiment: FRET or BRET
[12] = α2A-AR KO versus parental INS-1E
[13] = read-out: IC50, inhibition of GSIS, ref Aslanoglou et al. (2021)
[14] = read-out: IC50, inhibition of GSIS, ref Aslanoglou et al., 2021

Chain of IL6-HiBiT-D2R-HaloTag (human dopamine D2 receptor) (P14416 whole entry): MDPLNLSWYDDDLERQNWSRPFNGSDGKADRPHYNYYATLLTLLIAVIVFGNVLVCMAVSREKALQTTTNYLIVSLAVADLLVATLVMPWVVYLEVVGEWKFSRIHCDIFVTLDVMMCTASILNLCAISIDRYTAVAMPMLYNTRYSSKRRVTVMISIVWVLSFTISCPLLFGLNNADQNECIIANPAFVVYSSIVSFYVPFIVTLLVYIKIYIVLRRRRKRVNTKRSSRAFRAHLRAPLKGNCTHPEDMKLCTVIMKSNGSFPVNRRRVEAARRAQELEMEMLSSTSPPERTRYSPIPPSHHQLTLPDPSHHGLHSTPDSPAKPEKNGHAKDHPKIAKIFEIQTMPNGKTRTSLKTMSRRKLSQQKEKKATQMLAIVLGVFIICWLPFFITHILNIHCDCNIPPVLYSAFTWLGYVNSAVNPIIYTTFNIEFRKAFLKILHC
Chain of IL6-HiBiT-D2R-HaloTag (human dopamine D2 receptor) (human) (P14416 whole entry): as above

Molecule: NanoLuc-GαoA(91) (from UniProt P09471 1-354) (natural protein; other documents disagree on this pair)
- Emax of recruitment with bromocriptine (% of the DA response) (% of DA response) [1]: 109

Molecule: NanoLuc-Gαz(91) (from UniProt P19086 1-355) (natural protein; other documents disagree on this pair)
- EC50 of the agonist NE for recruitment [1]: 0.07 nM
- EC50 of the agonist bromocriptine for recruitment [1]: 4.3 nM
- Emax of recruitment with bromocriptine (% of the DA response) (% of DA response) [1]: 66.5

Molecule: NanoLuc-Gαz(91) (from UniProt P19086 1-355) (natural protein)
- Emax of recruitment with bromocriptine (% of the NE response) (% of NE response) [2]: 21.2

Molecule: NanoLuc-GαoA(91) (from UniProt P09471 1-354) (natural protein)
- Emax of recruitment with bromocriptine (% of the NE response) (% of NE response) [2]: 43

Molecule: NanoLuc-Gαi2(91) (from UniProt P04899 1-355) (natural protein)
- Emax of recruitment with bromocriptine (% of the NE response) (% of NE response) [2]: 43.8

Molecule: NCCc1ccc(O)c(O)c1 [DA, dopamine]
- Emax, inhibition of cAMP production (INS-1E cells [3]): 100.00 % DA
- EC50 (α2A-AR [4]; EC50, Gαi2 recruitment to α2A-AR, Gαi2): 1040 nM
- EC50 (α2A-AR [4]; EC50, Gαi3 recruitment to α2A-AR, Gαi3): 1030 nM
- EC50 (α2A-AR [4]; EC50, GαoA recruitment to α2A-AR, GαoA): 836 nM
- EC50 (α2A-AR [4]; EC50, GαoB recruitment to α2A-AR, GαoB): 945 nM
- EC50 (α2A-AR [4]; EC50, Gαz recruitment to α2A-AR, Gαz): 666 nM
- EC50 (α2A-AR [4]; pEC50, GαoB recruitment to α2A-AR, GαoB): 933 nM
- β-arrestin1 recruitment to α2A-AR (α2A-AR [5]): negligible recruitment
- IC50 ([6]; read-out: IC50, inhibition of cAMP production, α2A-AR KO): 1500 nM
- increase of potency in diminishing cAMP by α2A-AR KO [6, 12]: 1.7 fold
- reduction of efficacy in lowering cAMP by α2A-AR KO [6, 12]: 57% and 57.2%
- Emax, inhibition of cAMP production ([6]; α2A-AR KO, normalized to DA's efficacy in parental INS-1E): 57.15 [46.22–88.79] % DA
- IC50 (INS-1E cells [7]; [13]): 1490 nM
- IC50 (INS-1E cells [7]; [14]): 1500 nM
- pIC50, inhibition of GSIS (INS-1E cells [7]; ref Aslanoglou et al. (2021)): 5.83
- IC50 (mouse pancreatic islets [8]; [13]): 1300 nM
- IC50 (mouse pancreatic islets [8]; [14]): 1300 nM
- pIC50, inhibition of GSIS (mouse pancreatic islets [8]; ref Aslanoglou et al. (2021)): 5.89

Molecule: NanoLuc-Gαi1(91) (from UniProt P63096 1-354) (natural protein)
- Emax of recruitment with bromocriptine (% of the NE response) (% of NE response) [2]: 15.4

Molecule: NanoLuc-Gαi1(91) (from UniProt P63096 1-354) (natural protein; other documents disagree on this pair)
- EC50 of the agonist NE for recruitment [1]: 4900 nM
- EC50 of the agonist bromocriptine for recruitment [1]: 104 nM
- Emax of recruitment with bromocriptine (% of the DA response) (% of DA response) [1]: 60

Molecule: NanoLuc-Gαi3(91) (from UniProt P08754 1-354) (natural protein)
- Emax of recruitment with bromocriptine (% of the NE response) (% of NE response) [2]: 12.7

Molecule: Clc1cccc(Cl)c1N=C1NCCN1 [Clonidine, clonidine]
- IC50 (mouse pancreatic islets [9]): 7.36 nM
- IC50 (INS-1E cells [10]): 9.06 nM

Molecule: NanoLuc-Gαi3(91) (from UniProt P08754 1-354) (natural protein; other documents disagree on this pair)
- EC50 of the agonist NE for recruitment [1]: 32600 nM
- EC50 of the agonist bromocriptine for recruitment [1]: 84.3 nM
- Emax of recruitment with bromocriptine (% of the DA response) (% of DA response) [1]: 64.2

Molecule: NanoLuc-Gαi2(91) (from UniProt P04899 1-355) (natural protein; other documents disagree on this pair)
- EC50 of the agonist DA for recruitment [1]: 2.88 nM
- EC50 of the agonist NE for recruitment [1]: 25.3 nM
- EC50 of the agonist bromocriptine for recruitment [1]: 21.6 nM
- Emax of recruitment with bromocriptine (% of the DA response) (% of DA response) [1]: 89.3

B1: NanoLuc-GαoB(91) (natural protein)
chain: MGCTLSAEERAALERSKAIEKNLKEDGISAAKDVKLLLLGAGESGKSTIVKQMKIIHEDGFSGEDVKQYKPVVYSNTIQSLAAIVRAMDTLGIEYGDKERKADAKMVCDVVSRMEDTEPFSAELLSAMMRLWGDSGIQECFNRSREYQLNDSAKYYLDSLDRIGAADYQPTEQDILRTRVKTTGIVETHFTFKNLHFRLFDVGGQRSERKKWIHCFEDVTAIIFCVALSGYDQVLHEDETTNRMHESLKLFDSICNNKWFTDTSIILFLNKKDIFEEKIKKSPLTICFPEYTGPSAFTEAVAYIQAQYESKNKSAHKEIYTHVTCATDTNNIQFVFDAVTDVIIAKNLRGCGLY
- EC50 of the agonist DA for recruitment [11]: 22.4 nM
- EC50 of the agonist NE for recruitment [11]: 139 nM
- EC50 of the agonist bromocriptine for recruitment [11]: 0.27 nM
